Source: the Human Domainome abundance scans (Beltran et al. 2025)
± gives the uncertainty stated by the source.

B1: Steroid hormone receptor ERR2, residues 100 to 176; numbered along this chain, O95718 (parent)
chain: KRLCLVCGDIASGYHYGVASCEACKAFFKRTIQGNIEYSCPATNECEITKRRRKSCQACRFMKCLKVGMLKEGVRLD

Variants of: B1
Assay: abundance fitness (aPCA) (normalised: wild type 0, dead -1); higher = more abundant; growth selection in yeast, the domain comes from the species named
Details: Homo sapiens

Variant | abundance fitness
KRLCLVCGDIASGYHYGVASCEACKAFFKRTIQGNIEYSCPATNECEITKRRRKSCQACRFMKCLKVGMLKEEVRLD [G73E] | 0.118 ± 0.052
KRLCLVCGDIASGYHYGVASCEACKAFFKRTIQGNIEYSCPATNECEITKRRRKSCQACRFMKCLKVGMLKETVRLD [G73T] | 0.002 ± 0.063
KRLCLVCGDIASGYHYGVASCEACKAFFKRTIQGNIEYSCPATNECEITKRRRKSCQACRFMKCLKVGMLKEWVRLD [G73W] | -0.031 ± 0.057
KRLCLVCGDIASGYHYGVASCEACKAFFKRTIQGNIEYSCPATNECEITKRRRKSCQACRFMKCLKVGMLKEIVRLD [G73I] | -0.441 ± 0.19
KRLCLVCGDIASGYHYGVASCEACKAFFKRTIQGNIEYSCPATNECEITKRRRKSCQACRFMKCLKVGMLKEPVRLD [G73P] | 0.019 ± 0.071
KRLCLVCGDIASGYHYGVASCEACKAFFKRTIQGNIEYSCPATNECEITKRRRKSCQACRFMKCLKVGMLKEQVRLD [G73Q] | 0.046 ± 0.072
KRLCLVCGDIASGYHYGVASCEACKAFFKRTIQGNIEYSCPATNECEITKRRRKSCQACRFMKCLKVGMLKEHVRLD [G73H] | -0.104 ± 0.12
KRLCLVCGDIASGYHYGVASCEACKAFFKRTIQGNIEYSCPATNECEITKRRRKSCQACRFMKCLKVGMLKESVRLD [G73S] | -0.031 ± 0.054
KRLCLVCGDIASGYHYGVASCEACKAFFKRTIQGNIEYSCPATNECEITKRRRKSCQACRFMKCLKVGMLKEGVQLD [R75Q] | 0.153 ± 0.054
KRLCLVCGDIASGYHYGVASCEACKAFFKRTIQGNIEYSCPATNECEITKRRRKSCQACRFMKCLKVGMLKEGVDLD [R75D] | 0.04 ± 0.07
KRLCLVCGDIASGYHYGVASCEACKAFFKRTIQGNIEYSCPATNECEITKRRRKSCQACRFMKCLKVGMLKEGVALD [R75A] | 0.035 ± 0.046
KRLCLVCGDIASGYHYGVASCEACKAFFKRTIQGNIEYSCPATNECEITKRRRKSCQACRFMKCLKVGMLKEGVCLD [R75C] | 0.117 ± 0.067
KRLCLVCGDIASGYHYGVASCEACKAFFKRTIQGNIEYSCPATNECEITKRRRKSCQACRFMKCLKVGMLKEGVFLD [R75F] | -0.014 ± 0.079
KRLCLVCGDIASGYHYGVASCEACKAFFKRTIQGNIEYSCPATNECEITKRRRKSCQACRFMKCLKVGMLKEGVPLD [R75P] | 0.031 ± 0.068
KRLCLVCGDIASGYHYGVASCEACKAFFKRTIQGNIEYSCPATNECEITKRRRKSCQACRFMKCLKVGMLKEGVKLD [R75K] | 0.075 ± 0.057
KRLCLVCGDIASGYHYGVASCEACKAFFKRTIQGNIEYSCPATNECEITKRRRKSCQACRFMKCLKVGMLKEGVNLD [R75N] | -0.074 ± 0.1
KRLCLVCGDIASGYHYGVASCEACKAFFKRTIQGNIEYSCPATNECEITKRRRKSCQACRFMKCLKVGMLKEGVHLD [R75H] | -0.165 ± 0.11
KRLCLVCGDIASGYHYGVASCEACKAFFKRTIQGNIEYSCPATNECEITKRRRKSCQACRFMKCLKVGMLKEGVILD [R75I] | -0.051 ± 0.095

Variant | abundance fitness
KRLCLVCGDIASGYHYGVASCEACKAFFKRTIQGNIEYSCPATNECEITKRRRKSCQACRFMKCLKVGMLKEGVELD [R75E] | 0.076 ± 0.051
KRLCLVCGDIASGYHYGVASCEACKAFFKRTIQGNIEYSCPATNECEITKRRRKSCQACRFMKCLKVGMLKCGVRLD [E72C] | -0.262 ± 0.089
KRLCLVCGDIASGYHYGVASCEACKAFFKRTIQGNIEYSCPATNECEITKRRRKSCQACRFMKCLKVGMLKRGVRLD [E72R] | -0.355 ± 0.057
KRLCLVCGDIASGYHYGVASCEACKAFFKRTIQGNIEYSCPATNECEITKRRRKSCQACRFMKCLKVGMLKTGVRLD [E72T] | -0.104 ± 0.063
KRLCLVCGDIASGYHYGVASCEACKAFFKRTIQGNIEYSCPATNECEITKRRRKSCQACRFMKCLKVGMLKHGVRLD [E72H] | -0.368 ± 0.18
KRLCLVCGDIASGYHYGVASCEACKAFFKRTIQGNIEYSCPATNECEITKRRRKSCQACRFMKCLKVGMLKGGVRLD [E72G] | -0.122 ± 0.047
KRLCLVCGDIASGYHYGVASCEACKAFFKRTIQGNIEYSCPATNECEITKRRRKSCQACRFMKCLKVGMLKAGVRLD [E72A] | -0.088 ± 0.061
KRLCLVCGDIASGYHYGVASCEACKAFFKRTIQGNIEYSCPATNECEITKRRRKSCQACRFMKCLKVGMLKIGVRLD [E72I] | -0.299 ± 0.14
KRLCLVCGDIASGYHYGVASCEACKAFFKRTIQGNIEYSCPATNECEITKRRRKSCQACRFMKCLKVGMLKNGVRLD [E72N] | 0.02 ± 0.092
KRLCLVCGDIASGYHYGVASCEACKAFFKRTIQGNIEYSCPATNECEITKRRRKSCQACRFMKCLKVGMLKLGVRLD [E72L] | -0.424 ± 0.066
KRLCLVCGDIASGYHYGVASCEACKAFFKRTIQGNIEYSCPATNECEITKRRRKSCQACRFMKCLKVGMLKFGVRLD [E72F] | -0.556 ± 0.15
KRLCLVCGDIASGYHYGVASCEACKAFFKRTIQGNIEYSCPATNECEITKRRRKSCQACRFMKCLKVGMLKYGVRLD [E72Y] | -0.501 ± 0.15
KRLCLVCGDIASGYHYGVASCEACKAFFKRTIQGNIEYSCPATNECEITKRRRKSCQACRFMKCLKVGMLKMGVRLD [E72M] | -0.448 ± 0.12
KRLCLVCGDIASGYHYGVASCEACKAFFKRTIQGNIEYSCPATNECEITKRRRKSCQACRFMKCLKVGMLKPGVRLD [E72P] | -0.029 ± 0.065
KRLCLVCGDIASGYHYGVASCEACKAFFKRTIQGNIEYSCPATNECEITKRRRKSCQACRFMKCLKVGMLKQGVRLD [E72Q] | -0.16 ± 0.075
KRLCLVCGDIASGYHYGVASCEACKAFFKRTIQGNIEYSCPATNECEITKRRRKSCQACRFMKCLKVGMLKWGVRLD [E72W] | -0.503 ± 0.098
KRLCLVCGDIASGYHYGVASCEACKAFFKRTIQGNIEYSCPATNECEITKRRRKSCQACRFMKCLKVGMLKSGVRLD [E72S] | -0.051 ± 0.054
KRLCLVCGDIASGYHYGVASCEACKAFFKRTIQGNIEYSCPATNECEITKRRRKSCQACRFMKCLKVGMLKDGVRLD [E72D] | -0.012 ± 0.086
